These results are taken from article PMC11969024 (2025).

First the molecules themselves.
B1: peptide HD2 (from tick evasin EVA4) / CCL22 (biotinylated, synthetic) (parent complex)
chain 1: EEDDYTAYAPLTCYFT
chain 2: GPYGANMEDSVCCRDYVRYRLPLRVVKHFYWTSDSCPRPGVVLLTFRDKEICADPRVPWVKMILNKLSQ
B2: peptide HD2 (from tick evasin EVA4) / CXCL13 (biotinylated, synthetic) (parent complex)
chain 1: EEDDYTAYAPLTCYFT
chain 2: VLEVYYTSLRCRCVQESSVFIPRRFIDRIQILPRGNGCPRKEIIVWKKNKSIVCVDPQAEWIQRMMEVLRKRSSSTLPVPVFKRKIP

The variants in one experiment derive from B1.
For chain 1 A7S, the enrichment was 0.765 log2 (difference from the parental peptide).

As for chain 1 A7H, the enrichment is -1.29 log2 (difference from the parental peptide).

In the case of chain 1 A7K, the enrichment was 1.75 log2 (difference from the parental peptide).

As to chain 1 A7F, the enrichment is -4.01 log2 (difference from the parental peptide).

With chain 1 A7R, the enrichment is 1.93 log2 (difference from the parental peptide).

Consider chain 1 A7N, for which the enrichment is 0.601 log2 (difference from the parental peptide).

For the variant chain 1 T16C, the enrichment was -0.313 log2 (difference from the parental peptide).

With chain 1 T16R, the enrichment was 0.774 log2 (difference from the parental peptide).

Regarding chain 1 T16F, the enrichment was -0.929 log2 (difference from the parental peptide).

For the variant chain 1 T6A, the enrichment is 2.21 log2 (difference from the parental peptide).

As to chain 1 T6Q, the enrichment was 1.04 log2 (difference from the parental peptide).

As to chain 1 T6W, the enrichment was 0.246 log2 (difference from the parental peptide).

Turning to chain 1 T6F, the enrichment is -4.13 log2 (difference from the parental peptide).

Regarding chain 1 L11W, the enrichment is -0.394 log2 (difference from the parental peptide).

As to chain 1 D3W, the enrichment is -4.6 log2 (difference from the parental peptide).

With chain 1 A9V, the enrichment was -7.85 log2 (difference from the parental peptide).

On to chain 1 A9K, for which the enrichment is -1.67 log2 (difference from the parental peptide).

As to chain 1 A9F, the enrichment was -6.96 log2 (difference from the parental peptide).

With chain 1 C13N, the enrichment was -2.81 log2 (difference from the parental peptide).

chain 1 C13E: the enrichment is -7.93 log2 (difference from the parental peptide).

As to chain 1 C13T, the enrichment is -3.64 log2 (difference from the parental peptide).

chain 1 C13V: the enrichment is -4.77 log2 (difference from the parental peptide).

On to chain 1 E1Y, for which the enrichment was -0.831 log2 (difference from the parental peptide).

Take chain 1 E1F: the enrichment was -2.24 log2 (difference from the parental peptide).

As to chain 1 P10D, the enrichment was -7.41 log2 (difference from the parental peptide).

Take chain 1 Y14K: the enrichment was -0.0931 log2 (difference from the parental peptide).

chain 1 Y14A: the enrichment is -1.98 log2 (difference from the parental peptide).

Take chain 1 Y14N: the enrichment was -0.898 log2 (difference from the parental peptide).

With chain 1 Y14V, the enrichment was 0.032 log2 (difference from the parental peptide).

Turning to chain 1 T12R, the enrichment is 4.22 log2 (difference from the parental peptide).

chain 1 T12S: the enrichment is -0.091 log2 (difference from the parental peptide).

For chain 1 T12K, the enrichment is 2.34 log2 (difference from the parental peptide).

Regarding chain 1 T12N, the enrichment was -0.224 log2 (difference from the parental peptide).

For chain 1 F15W, the enrichment is 0.858 log2 (difference from the parental peptide).

In the case of chain 1 F15N, the enrichment is -0.8 log2 (difference from the parental peptide).

Take chain 1 F15Q: the enrichment is -0.747 log2 (difference from the parental peptide).

Consider chain 1 D4W, for which the enrichment is -3.58 log2 (difference from the parental peptide).

For chain 1 D4Q, the enrichment is -6.48 log2 (difference from the parental peptide).

For chain 1 D4M, the enrichment is -4.82 log2 (difference from the parental peptide).

For chain 1 D4P, the enrichment is -7.07 log2 (difference from the parental peptide).

In another experiment the parent is B2.
On to chain 1 A7Q, for which the enrichment is 3.15 log2 (difference from the parental peptide).

For the variant chain 1 A7N, the enrichment was 2.99 log2 (difference from the parental peptide).

As to chain 1 A7T, the enrichment is 2.08 log2 (difference from the parental peptide).

For the variant chain 1 A7D, the enrichment is 5.88 log2 (difference from the parental peptide).

With chain 1 A7H, the enrichment was 0.018 log2 (difference from the parental peptide).

As for chain 1 A7S, the enrichment was 2.57 log2 (difference from the parental peptide).

Consider chain 1 E1F, for which the enrichment was -1.39 log2 (difference from the parental peptide).

As for chain 1 E1K, the enrichment is -4.84 log2 (difference from the parental peptide).

Take chain 1 E1N: the enrichment is -1.5 log2 (difference from the parental peptide).

For chain 1 E1M, the enrichment is -0.674 log2 (difference from the parental peptide).

Consider chain 1 E1W, for which the enrichment was -0.426 log2 (difference from the parental peptide).

For the variant chain 1 E1S, the enrichment was -2.39 log2 (difference from the parental peptide).

As for chain 1 E1D, the enrichment is 2.17 log2 (difference from the parental peptide).

In the case of chain 1 E1Y, the enrichment was 0.38 log2 (difference from the parental peptide).

As to chain 1 E2Q, the enrichment is -2.09 log2 (difference from the parental peptide).

On to chain 1 E2H, for which the enrichment is -3.83 log2 (difference from the parental peptide).

On to chain 1 E2W, for which the enrichment is 1.38 log2 (difference from the parental peptide).

Consider chain 1 E2D, for which the enrichment was 1.8 log2 (difference from the parental peptide).

Consider chain 1 E2M, for which the enrichment is -1.37 log2 (difference from the parental peptide).

Regarding chain 1 E2S, the enrichment is -2.79 log2 (difference from the parental peptide).

For chain 1 E2V, the enrichment was -1.21 log2 (difference from the parental peptide).

As to chain 1 D4L, the enrichment is -4.8 log2 (difference from the parental peptide).

With chain 1 D4Y, the enrichment is -2.64 log2 (difference from the parental peptide).

chain 1 D4G: the enrichment was -5 log2 (difference from the parental peptide).

chain 1 D4E: the enrichment was -0.811 log2 (difference from the parental peptide).

chain 1 D4P: the enrichment is -1.45 log2 (difference from the parental peptide).

Consider chain 1 D4M, for which the enrichment was -5.4 log2 (difference from the parental peptide).

Consider chain 1 D4I, for which the enrichment is -4.76 log2 (difference from the parental peptide).

Regarding chain 1 P10G, the enrichment was 1.04 log2 (difference from the parental peptide).

Take chain 1 P10S: the enrichment is -4.38 log2 (difference from the parental peptide).

Take chain 1 P10D: the enrichment is 0.396 log2 (difference from the parental peptide).

Consider chain 1 P10N, for which the enrichment was -5.21 log2 (difference from the parental peptide).

For chain 1 P10M, the enrichment was -7.27 log2 (difference from the parental peptide).

With chain 1 T6Q, the enrichment is 1.51 log2 (difference from the parental peptide).

As for chain 1 T6E, the enrichment was 4.71 log2 (difference from the parental peptide).

As to chain 1 T6K, the enrichment was -2.94 log2 (difference from the parental peptide).

As to chain 1 T6N, the enrichment was 2.54 log2 (difference from the parental peptide).

For chain 1 T6H, the enrichment is 0.439 log2 (difference from the parental peptide).

chain 1 T6D: the enrichment was 5.14 log2 (difference from the parental peptide).

For the variant chain 1 T6G, the enrichment is 4.13 log2 (difference from the parental peptide).

chain 1 T6A: the enrichment is 1.86 log2 (difference from the parental peptide).

For chain 1 T6P, the enrichment is -0.391 log2 (difference from the parental peptide).

For the variant chain 1 T6M, the enrichment is 3.02 log2 (difference from the parental peptide).

Take chain 1 F15C: the enrichment was -7.62 log2 (difference from the parental peptide).

Turning to chain 1 F15R, the enrichment was -6.31 log2 (difference from the parental peptide).

For the variant chain 1 F15S, the enrichment is -6.75 log2 (difference from the parental peptide).

For chain 1 F15W, the enrichment is -3.2 log2 (difference from the parental peptide).

chain 1 F15L: the enrichment was -2.76 log2 (difference from the parental peptide).

As to chain 1 F15I, the enrichment is -5.03 log2 (difference from the parental peptide).

In the case of chain 1 F15P, the enrichment was -3.33 log2 (difference from the parental peptide).

In the case of chain 1 Y5G, the enrichment was -3.88 log2 (difference from the parental peptide).

With chain 1 Y5Q, the enrichment was -3.13 log2 (difference from the parental peptide).

For the variant chain 1 Y5H, the enrichment was -5.1 log2 (difference from the parental peptide).

With chain 1 Y5N, the enrichment is -2.57 log2 (difference from the parental peptide).

chain 1 Y5P: the enrichment was -1.42 log2 (difference from the parental peptide).

With chain 1 Y5D, the enrichment was 1.05 log2 (difference from the parental peptide).

As to chain 1 Y5M, the enrichment was -0.226 log2 (difference from the parental peptide).

On to chain 1 Y5A, for which the enrichment is -2.67 log2 (difference from the parental peptide).

With chain 1 Y5L, the enrichment was -1.23 log2 (difference from the parental peptide).

For the variant chain 1 Y5E, the enrichment was -0.259 log2 (difference from the parental peptide).

Consider chain 1 D3N, for which the enrichment is -4.32 log2 (difference from the parental peptide).

chain 1 D3M: the enrichment was -5.03 log2 (difference from the parental peptide).

Turning to chain 1 D3L, the enrichment is -5.21 log2 (difference from the parental peptide).

As for chain 1 D3I, the enrichment is -5.63 log2 (difference from the parental peptide).

chain 1 D3P: the enrichment is -5.29 log2 (difference from the parental peptide).

Turning to chain 1 D3S, the enrichment was -3.94 log2 (difference from the parental peptide).

On to chain 1 D3E, for which the enrichment is 0.606 log2 (difference from the parental peptide).

On to chain 1 D3F, for which the enrichment was -4.35 log2 (difference from the parental peptide).

As for chain 1 C13N, the enrichment was -4.98 log2 (difference from the parental peptide).

For the variant chain 1 C13Q, the enrichment was -8.15 log2 (difference from the parental peptide).

For chain 1 C13L, the enrichment was -10.1 log2 (difference from the parental peptide).

Consider chain 1 C13A, for which the enrichment was -7.08 log2 (difference from the parental peptide).

On to chain 1 C13T, for which the enrichment is -5.19 log2 (difference from the parental peptide).

chain 1 C13S: the enrichment is -4.26 log2 (difference from the parental peptide).

Consider chain 1 A9M, for which the enrichment is -0.268 log2 (difference from the parental peptide).

For chain 1 A9H, the enrichment is -1.63 log2 (difference from the parental peptide).

chain 1 A9G: the enrichment was 0.486 log2 (difference from the parental peptide).

Take chain 1 A9W: the enrichment is 1.81 log2 (difference from the parental peptide).

On to chain 1 A9I, for which the enrichment was -5.77 log2 (difference from the parental peptide).

As for chain 1 A9Y, the enrichment is -1.21 log2 (difference from the parental peptide).

Take chain 1 Y14H: the enrichment is -4.76 log2 (difference from the parental peptide).

Take chain 1 Y14C: the enrichment was -6.09 log2 (difference from the parental peptide).

Turning to chain 1 Y8G, the enrichment was -3.39 log2 (difference from the parental peptide).

As to chain 1 Y8T, the enrichment is -4.45 log2 (difference from the parental peptide).

In the case of chain 1 Y8M, the enrichment is -1.68 log2 (difference from the parental peptide).

chain 1 Y8Q: the enrichment was -5.13 log2 (difference from the parental peptide).

With chain 1 Y8L, the enrichment was -2.2 log2 (difference from the parental peptide).

As for chain 1 Y8A, the enrichment was -4.55 log2 (difference from the parental peptide).

As to chain 1 Y8N, the enrichment is -3.32 log2 (difference from the parental peptide).

As to chain 1 T16L, the enrichment is -0.207 log2 (difference from the parental peptide).

On to chain 1 T16W, for which the enrichment was -0.0649 log2 (difference from the parental peptide).

In the case of chain 1 T16H, the enrichment was 0.0142 log2 (difference from the parental peptide).

In the case of chain 1 T16R, the enrichment is -7.96 log2 (difference from the parental peptide).

Consider chain 1 T16F, for which the enrichment was -1.23 log2 (difference from the parental peptide).

As to chain 1 T16V, the enrichment was -0.466 log2 (difference from the parental peptide).

Regarding chain 1 T16G, the enrichment was 2.07 log2 (difference from the parental peptide).

For chain 1 T16S, the enrichment is 0.948 log2 (difference from the parental peptide).

As for chain 1 T16K, the enrichment is -6.05 log2 (difference from the parental peptide).

As for chain 1 T16Q, the enrichment was -1.21 log2 (difference from the parental peptide).

For the variant chain 1 L11H, the enrichment is -5.03 log2 (difference from the parental peptide).

chain 1 L11A: the enrichment was -7.28 log2 (difference from the parental peptide).

For the variant chain 1 L11N, the enrichment was -7.22 log2 (difference from the parental peptide).

For the variant chain 1 L11S, the enrichment was -8.97 log2 (difference from the parental peptide).

As to chain 1 L11W, the enrichment is -1.43 log2 (difference from the parental peptide).

For the variant chain 1 T12F, the enrichment was -1.29 log2 (difference from the parental peptide).

Regarding chain 1 T12N, the enrichment was -4.95 log2 (difference from the parental peptide).

As for chain 1 T12L, the enrichment was -1.72 log2 (difference from the parental peptide).

Take chain 1 T12A: the enrichment was -5.98 log2 (difference from the parental peptide).

On to chain 1 T12D, for which the enrichment is -5.43 log2 (difference from the parental peptide).

chain 1 T12M: the enrichment was -0.149 log2 (difference from the parental peptide).
